Test results reported in the nanobody polyreactivity screen of Harvey et al. (2022).

Experiment: yeast display, Sf9 membrane polyspecificity reagent, FACS + sequencing; frameworks hold sequencing errors
Summary of the method: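 Genes from sorted yeast were amplified by colony PCR, read by MiSeq 2 × 250 sequencing and filtered on CDR length. These cells carried a synthetic nanobody library in Saccharomyces cerevisiae BJ5465 and were sorted by FACS into low and high (top ~1%) gates on anti-HA and streptavidin fluorescence. Polyreactivity is labelled according to the gate of origin.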

| Sequence | polyreactivity (PSR sort gate) |
| --- | --- |
| QVQLVESGGGLVQAGGSLRISCAASGSISVYNAMGWYRQAPGKERELVAAISWSGGRTSYADSVKGRFTISRDNAKKTVYLQMNSLKPEDTEVYYCAADELTVLWDEDYWGQGTQVTVSS | low polyreactivity |
| QVQLVESGGGLVQAGGSLRLSCAASGSIFYLNAMGWYRQAPGQERELVASISNGGSTNYADSVKGRFTISRDNAKHTVYLQMNSLKPEVTAVYYCAADYVVSAFDYWGQGTQLTVSS | low polyreactivity |
| QVQLVESGGGLVQAGGSLRLSCAASGSIFHYYTMGWYRQAPGKERELVAGISRSGGSTYYADSVKGRFTISRDNAKNTVYLQMNSLKPEDTAVYYCAAARYPYLYAYGYWGQGTQVTVSS | high polyreactivity |
| QVQLVESGGGLVQAGGSRRLSCAASGSIFPQYAMGWYRQAPGKERELVAAITWSGSRTRYADSVKGRFTMSRDTAKNTGYLQMNSLKPEDTAVYDCAARFNGQTYYYWGQGTQVTLSS | high polyreactivity |
| QVQHVESGGGLVQAGGSLRLSCSASGSTFGLYAMGWSRQAPGKETELVAVISWRGGSTYYADSVKGRFTISRDNAKNTVYLQMNSLKPEDTAVYYCAAYSRYPYVRYDYWGQGTQVTVSS | low polyreactivity |
| QVQLVESGGALVQAGGSLRLSCAASGPIFGVYAMGWYRQAPGKERELVAAITYTGASTYYADSVKGRFTISRDNAKNTVYLQMNSLKPEDTAVYYCAGRLWRRSRFDYWGQGTQVTVSS | high polyreactivity |
| QVQLVESGGGLVQAGGSLRLSCAASGFIFFEYAMGWYRQAPGKERELVAAISWSDDTTYYADSVKGRFTISRDNAKNTVYLQMNSLNPEDTAVYYCNVRYWGFYDYDYWGQGSQVTVSS | low polyreactivity |
| QVQLVQSWRGLVQAGASLRLSCAASGRIFPGYAMGWYREAPGKERELDASSSRTGRTNYADSVKGRFTISRVNAKNTVYLQMNRLKPEYTAVYYCANASPWYFWGYDYWGQGSQVTVSS | low polyreactivity |
| QVQLVESGGGVVQAGGSLRLSCAASGSIVYSYAMGWYRQAPGKERELVARIRWGGGRTYYADSVKGHFAISRDNAKNTVYLQMNSLKPEDTAVYYCAASYVYPASFHYYYWGQGTQVTVSS | high polyreactivity |
| QVQLVESGGGLVQAGGSLRLSCAASGRNFSLYAMGWYRQAPGKERELVAAISRGGSTYYADSVKGRFTISRDNAKNTVYLQMNSLKPEDTAVYYCAAAPDYRAEYDYWGQGTQVTVSS | low polyreactivity |
| QVQLVESGGGLVQAGGSLRLSCAASGRTFYSYAMGWYRQAPGKERELVAAISSGGTTYYADSVKGRFTISRDNAKNTVYLQMNSLKPEDTAVYYCATSRAWRYRSYYWGQGTQVTVSS | high polyreactivity |
| QVQLVESGGGLVQAGGSLRLSCAASGRTFIKYAMGWYRQAPGKERELVAAITYSAGSTSYADSVKGRFTISRDNAKNTVYLQMNSLKPEDTAVYYCNAVPTWWTQEVGSYKSLGYWGQGTQVTVSS | low polyreactivity |
| QVQLVESGGGLVQAGGSLRLSCAASGFIFPLYTMGWYRQAPGKEREVVAAISWIGGRTYYADSVKGRFTISRDFAKNTVYLQMISLKPEDTAVYFCGKDPSGGGYGYDYWGQGTQVTVTS | low polyreactivity |
| QVQLVESGGGLVQAGGSLRLSCAASGRTFSWYAMGWYRQAPGKERELVAAISSSGGSTYYADSVKGRFTISRDNAKNTVYLQMNSLKPEDTAVYYCAVRYYSSLSQRYYSWGQGTQVTVSS | high polyreactivity |
| QVQLVESGGGLVQAGGSLRLSCAASGSTFYKYAMGGYRQAPGKERELVAAISTRGGSTYYADSVKGRFTISRDNAKNTVYLQMNSLKPEDTAVYYCAADGSGGHDDYWGQGTQVTVSS | high polyreactivity |
| QVQLVESGGGLVQAGGSLRLSCAASGRTFVVYAMGWYRQAPGKERELVAVISFTRDSTFYADSVKGRFTISRDNAKNTVYLQMNSLKPEDTAVYYCAADFRRVFSKYSYYLYFEFDYWGQGTQVTVSS | low polyreactivity |
| QVQLVESGGGLVQAGGSLRLSCAASGIIFKGYDMGWYRQAPGKERELVAAISSGSTNYADSVKGRFTISRDNAKNTVYLQMNSLKPEDTAVYYCNKDSISYTWGYDYWGQGTQVTVSS | low polyreactivity |
| QVQLVESGGGLVQAGGSLRLTCAASGLTFPSYSMGWYRQAPGKERELVAAIYYSGGSTYYADSVKGRFTISRDNAKITVYIHMNSLKPEDTAVYYCAADFTSFFNRIDYWGQGTQVTVSS | low polyreactivity |
| QVQLVESGGGLVQAGGSLRLSCAASGGIFKKYAMGWYRQAPGKERELVAVITSGGRTNYADSVKGRFTISRDNAKNTVYLLMNSLKPEDTAVYYCAAVYVTGSYRYGYWGQGSQVTVSS | high polyreactivity |
| QVQLVESGGGLVQAGGSLRLSCAASGSIFRGNAMGWYRQAPGKERELVAAISKSGGSTYYADSVKGRFTISRDNAKNTVYLQMNSLKPEDTAVYYRAARTTYLYGMYYWGQGTQVTVSS | low polyreactivity |
| QVQLVESGGGLFQAGGSLRVSCAASGSTFYLYAMGWSRQAPGKEREWVAAISRRGGTTNYADSVKGRFTISRDNAKNSVYLQMNSLKPEDTAVYDCGADYQSVGGAEYDYWGQGTQVTVSS | high polyreactivity |
| QVQLVESGGGLVQAGGSLRLSCAASGFTFYRYTMGWYRQAPGKERELVASITRRGGSTYYADSVKGRFTISRDNAKNTVYLQMNSLKPEDTAVYYCNAATPVWQSGTYEYWGQGTQVTVSS | high polyreactivity |

| Sequence | polyreactivity (PSR sort gate) |
| --- | --- |
| QVQLVESGGGLVQAGGSLRLSCAASGRTTLLYAMGWYRQAPGKERELVATIRYTGGSTYADSVKGHFTISRDNAKNTVYLQMNILKPEDTAVYYCNARSYQYDGGHRYWGQGTQVTVSL | high polyreactivity |
| QVQLVESGGGLVQAGGSLRLSCAASGSIFDRYVMGWYRPAPGKERELVAAISKSGGNTYYADSVKGRFTISRDYEKNTVYLQMNSLKPEDTAVYYCNARSGRYYLGYGYWGQGTQVTVSS | high polyreactivity |
| QVQIVESGGGLVQAGGSLRLSCAASGRIFVPYVMGWYRQAPGKERELVASISDSDTSTYYADSVKGRFTISRDNAKNTVYLQMNSLKPEDSAVYYCAAGVLRRATELYYWGQGTQVTVSS | low polyreactivity |
| QVQLVESGGGLVQAGGSLRLSCAASGLTFRRNAMGWYRQAPGKERELVAAITARGTSTYYADSVKGRFSISRDNAKNTVYLQMNSLKPEDTAVYYCNVRWHRTRSEYDYWGQGTQVTVSS | high polyreactivity |
| QVQLVESGGGLVQAGGSLRLSCAASGFTFSTYTMGWYRPAPGKVRELVAAITWTGGRKYYADSVKGRFTISRDNAKNTVFLQMNSLKPEDTAVYYCNRAGYTGAEVYGYDYWGQGTQVTVSS | high polyreactivity |
| QVQRVESGGGLGQAGGSLRLSCDASGRTFSGNTMGWYRQAPVKERELVAVINSGTRTYYADSVKGRFTISRDNAKNTVYLQMYSLKPEDTAGYYCATRCKSPSSKYGYWGQGTQVNVSS | high polyreactivity |
| QVQLVESGGGLVQAGGSLRLSSAASGRTFYSNAMGWYRQAPGKERELVAGISKSGGITYYADSVKGRFTISRDNAKNTVYLQMNRLKPEDTAVYYCAARRRGRFYYWGQGTQVTVSS | high polyreactivity |
| QVQLVESGGGLVQAGGSLRLSCAASGSIYTHNAMGWSRQAPGKERELVAAISSGGSTNYADSVKGRFTISRDNAKNTVYLQMNSLKPEDTAVYYCAKSIDGWYWRRRRYDYWGQGTQVTVSS | low polyreactivity |
| QVPLVESGGGLVQAGGSLRLSCAASGLTVSSYAMGWYRQAPGKERELVAVFSRTGGSTYYADSVKGRFTISRDNAKNTVYLQMNSLKPEDTAVYYCAARSYNGWRYDSWGQGTQVTVSS | high polyreactivity |
| QVQLVESGGGLVQAGGSLRLSCAASGSTFWGYTMGWYRQAPGKERELVAAISTIGGSTYYADSVKGRFTISRDNAKNTVYLQMNSLKPEDTAVYYCAAEVYTFSGTSWVKDGGYWGQGTQVTVSS | low polyreactivity |
| QVQLVESGGGLVQAGGSLRLSCAASGSTFLLYDMGWYRQAPGKERELVAAITWSGGSTYYADSVKGRFTISRDNAKNTVYLQMNSLKPEDTEVYYCAADSLGDRYYYWGQGTQVTVSS | low polyreactivity |
| QVQLVESGGGLVQAGGSLRLSCAASGRTFPFNTMGWYRQAPGKERELVARISSGGSTYYADSVKGRFRISRDNAKNTVYLQMNSLKPEDTAVYYCATRYRYYSRLYDYWGQGTQVTVSS | high polyreactivity |
| QVQLVESVGGLVQAGGSLRLSCAASGSTFSSYAMGWYRTAPGKERELVAALTASGGSTYYADSVKGRFTISRDNAKNTVYLQMNSLKPEDTAVYYCAAADVIFWLYYYWVQGTQVTVSS | low polyreactivity |
| QVQLVESGGGLVQAGGSLRLSCAASGIIFTSNTMGWYRQAPGKEREFVASINWNGSSTYADSVKGRFTISRDNAKNTVYLQMNSLKPEDTAVYYCAAEASPRLYRKYDYWGQGTQVTVSS | low polyreactivity |
| QVQHVESGGGLVQAGGSHRLSCAASGSTFTYYAMGWYRQAPGKERELVAAISRGGSTYYADSVKGRFTISRDNAKNTVYLKKYSLKPEDTAVYYCAAERGYKKWSRGYWGQGTLVTVSS | high polyreactivity |
| QVQLVESGGGLVQAGGSLRLSCAASGSIFLSYDMGWYRQAPGNESELVAAITQSGGSTYYADSVKGRFTISRDNAKNTVYLQMNSLKPEDTAVYYCAADYGYFPQETYPTYGYYYWGQGTQVTVSS | low polyreactivity |
| QVQLVESGGGLVQAGGSLRLSCAASGITFYYYAMGWYRQAPGKERELVASISSVGTTYYADSVKGRFTISGDNAKNTFYLEMNSLKPVDTAVYYCAAVDYVRYYPDEFDYWGQGTQVTVSS | low polyreactivity |
| QVQLVESGGGFVQAGGRLRLSCAASGRTFKYYAMGWYRPAPGKDRELVAAISRGGSTNYADSVKGRFTISRDNAKNTVYLQLTSLNPEDTAVYYCAADQVTDYWWRGYEYWGQGTQVTVSS | low polyreactivity |
| QVQLVESGGGLVQAGGSLRLICAASGRIFDFYAMGWYRQAPGKDRELVAAITTGDSTYYADSVKGRFTISRDNAKNTVYLQMNSLKPEDTAVYDCAAVGHGGWDGDDYWGQGTQVTVSS | low polyreactivity |
| QVQLVESGGGLVQAGGSLRLSCAASGRTFVYYAMAWYRQAPGKERELVAAISRTGVNTYYADSVKGRFTISRDNAKNTVYLQMNSQKPEDTAVYYCNKVYRADRSSVPYEYWGQGTQVTVSS | high polyreactivity |
| QVQLVESGGGLVQAGGSLRLSCAASGFIFSRYTMGWYRQAPGKERELVAAITARGSSTYYADSVKGRFTISRDIAKNTVYLQMISLKPEDTAVYYCNAGQYVFYRPYDYWGQGTQVTVSS | high polyreactivity |
